These results are taken from paper PMC9101815, “Extracellular Matrix Biomimetic Hydrogels, Encapsulated with Stromal Cell-Derived Factor 1, Improve the Composition of Foetal Tissue Grafts in a Rodent Model of Parkinson’s Disease” (International Journal of Molecular Sciences, 2022).

The data set deals with the molecule itself. Put plainly: FTIR + circular dichroism + transmission electron microscopy; peptide alone; gelation by pH switch, 20 mg/mL stock; self-assembly under physiological conditions (pH 7.4) into nanofibrils and a hydrogel.

Ends that are not written are not given here. * marks the point of attachment. Fmoc = O=C(OCC1c2ccccc2-c2ccccc21)*

B1: Fmoc-DDIKVAV self-assembling peptide (peptide)
peptide: Fmoc-DDIKVAV
notes: Whole peptide as printed: DDIKVAV with N-terminal Fmoc; Assembles into nanofibres and a hydrogel; also called SAP; IKVAV SAP; source: solid phase peptide synthesis
Consider B1, for which the binding result is “binds”.
